Assay results as given in PMC3110666 (Nature cell biology, 2011).

Molecular target: the molecule itself
Assay: cross-linking

B1: G6PD of MEF cells (enzyme, mouse (endogenous in MEF), UniProt Q00612 1-515, looked up)
chain: MAEQVALSRTQVCGILREELYQGDAFHQADTHIFIIMGASGDLAKKKIYPTIWWLFRDGLLPEDTFIVGYARSRLTVDDIRKQSEPFFKATPEERPKLEEFFARNSYVAGQYDDAASYKHLNSHMNALHQGMQANRLFYLALPPTVYEAVTKNIQETCMSQTGWNRIIVEKPFGRDLQSSNQLSNHISSLFREDQIYRIDHYLGKEMVQNLMVLRFANRIFGPIWNRDNIACVILTFKEPFGTEGRGGYFDEFGIIRDVMQNHLLQMLCLVAMEKPATTGSDDVRDEKVKVLKCISEVETDNVVLGQYVGNPNGEGEAANGYLDDPTVPHGSTTATFAAAVLYVENERWDGVPFILRCGKALNERKAEVRLQFRDVAGDIFHQQCKRNELVIRVQPNEAVYTKMMTKKPGMFFNPEESELDLTYGNRYKNVKLPDAYERLILDVFCGSQMHFVRSDELREAWRIFTPLLHKIDREKPQPIPYVYGSRGPTEADELMKRVGFQYEGTYKWVNPHKL
Q: B1 was tested. Which “stoichiometry N” value did it give?
A: Its value is 2.
